According to patent US20110110959A1 (BIOSCEPTRE AUST, published 2011):

Key:
HLA (human) [1] = experiment: FACS, MCF-7 breast tumour cell line
HLA (human) [2] = experiment: FACS, human lymphocytes
[3] = biological target: T1, composite peptide GHNYTTRNILPGAGAKYYKENNVEK (BSA carrier protein attached for coating of ELISA plates); experiment: ELISA, coated antigen, supernatant, duplicate 2
T1 construct: also called EP200/300; 200/300-peptide
T1 peptide: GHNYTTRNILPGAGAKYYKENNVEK

[4] = biological target: T2, 200 (a peptide having the sequence of the E200 region); experiment: ELISA, coated antigen, supernatant, duplicate 2
T2 construct: also called E200 peptide
T2 peptide: GHNYTTRNILPGLNITC

[5] = biological target: T3, 300 (a peptide having the sequence of the E300 region); experiment: ELISA, coated antigen, supernatant, duplicate 2
T3 construct: also called E300 peptide
T3 peptide: KYYKENNVEKRTLIKVF

U140 [6] = experiment: ELISA, coated antigen, supernatant, duplicate 2
U80 [7] = experiment: ELISA, coated antigen, supernatant, duplicate 2
[8] = biological target: T1, composite peptide …; experiment: ELISA, coated antigen, supernatant, duplicate 1
[9] = biological target: T2, 200 (a peptide having the sequence of …); experiment: ELISA, coated antigen, supernatant, duplicate 1
[10] = biological target: T3, 300 (a peptide having the sequence of …); experiment: ELISA, coated antigen, supernatant, duplicate 1
U140 [11] = experiment: ELISA, coated antigen, supernatant, duplicate 1
U80 [12] = experiment: ELISA, coated antigen, supernatant, duplicate 1

HLA (W6/32) Positive Control (antibody)
Mean Fluorescence Intensity (MFI) (HLA (human) [1]): 1670 MFI
Percent Cells Positive (HLA (human) [1]): 87%
Mean Fluorescence Intensity (MFI) (HLA (human) [2]): 3900 MFI
Percent Cells Positive (HLA (human) [2]): 100%

B1: 2A11 (antibody, V domains shown)
VH: QVQLQESGGGSVQAGGSLRLSCTASGFTLDDSDLGWYRQAPGNECELVSIIRRDGSPYHTYYPDSVKGRFTISQDNAKNTLYLQMNSLKPEDTAVYYCAADPSRYYSDYGAPGCGFNYWGQGTQVTVSS
ELISA absorbance (405 nm, reference 490 nm) [3]: 3.6 OD
ELISA absorbance (405 nm, reference 490 nm) [4]: 0.194 OD
ELISA absorbance (405 nm, reference 490 nm) [5]: 0.186 OD
ELISA absorbance (405 nm, reference 490 nm) (U140 [6]): 0.508 OD
ELISA absorbance (405 nm, reference 490 nm) (U80 [7]): 0.154 OD
ELISA absorbance (405 nm, reference 490 nm) [8]: 3.62 OD
ELISA absorbance (405 nm, reference 490 nm) [9]: 0.138 OD
ELISA absorbance (405 nm, reference 490 nm) [10]: 0.144 OD
ELISA absorbance (405 nm, reference 490 nm) (U140 [11]): 0.17 OD
ELISA absorbance (405 nm, reference 490 nm) (U80 [12]): 0.181 OD
